The results in this text go back to patent US20230406935A1 (F STAR THERAPEUTICS, published 2023).

Changes are numbered by the printed parent chain.

The target in assay [1] is Human PD-L1 expressed on cells (human, UniProt Q9NZQ7 19-290). As to the kind of experiment: cell-based or functional assay.
The target in assay [2] is T1, Monomeric His-tagged human PD-L1 (Acro biosystems PD1-H5229) (human, UniProt Q9NZQ7 19-238).
T1 construct: also called hPD-L1-his; PD-L1-his
As to the kind of experiment: off-rate on PD-L1, mock mAb^2; instrument not given.

Assay [3] has as its target T1, Monomeric His-tagged human PD-L1 (Acro …). As to the kind of experiment: off-rate, binding to hPD-L1, mock mAb^2; instrument not stated.

Sequence of Human PD-L1 expressed on cells (Q9NZQ7 19-290 limits assumed): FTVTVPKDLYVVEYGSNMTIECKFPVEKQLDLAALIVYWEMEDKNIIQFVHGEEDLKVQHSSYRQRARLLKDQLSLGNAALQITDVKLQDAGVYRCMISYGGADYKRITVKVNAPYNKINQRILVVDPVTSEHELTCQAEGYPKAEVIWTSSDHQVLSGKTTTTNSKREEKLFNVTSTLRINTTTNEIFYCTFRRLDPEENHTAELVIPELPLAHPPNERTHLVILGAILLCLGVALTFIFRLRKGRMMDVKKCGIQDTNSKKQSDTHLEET
T1 sequence (Q9NZQ7 19-238 limits assumed): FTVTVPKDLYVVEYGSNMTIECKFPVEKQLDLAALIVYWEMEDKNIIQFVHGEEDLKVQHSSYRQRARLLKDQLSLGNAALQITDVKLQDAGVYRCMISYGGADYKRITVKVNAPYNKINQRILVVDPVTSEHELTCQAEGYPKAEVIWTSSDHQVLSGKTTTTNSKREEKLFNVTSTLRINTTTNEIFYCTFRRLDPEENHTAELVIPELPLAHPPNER

B1: FS17-33-266AA/HELD1.3 (bispecific antibody)
chain 1: QVQLQESGPGLVRPSQTLSLTCTVSGSTFSGYGVNWVRQPPGRGLEWIGMIWGDGNTDYNSALKSRVTMLVDTSKNQFSLRLSSVTAADTAVYYCARERDYRLDYWGQGSLVTVSSASTKGPSVFPLAPSSKSTSGGTAALGCLVKDYFPEPVTVSWNSGALTSGVHTFPAVLQSSGLYSLSSVVTVPSSSLGTQTYICNVNHKPSNTKVDKKVEPKSCDKTHTCPPCPAPEAAGGPSVFLFPPKPKDTLMISRTPEVTCVVVDVSHEDPEVKFNWYVDGVEVHNAKTKPREEQYNSTYRVVSVLTVLHQDWLNGKEYKCKVSNKALPAPIEKTISKAKGQPREPQVYTLPPSRDESGYWVSLTCLVKGFYPSDIAVEWESNGEPQYWAKTTPPVLDSDGSFFLYSKLTVSNWRWRLDDFSCSVMHEALHNHYTQKSLSLSPGK
chain 2: DIQMTQSPASLSASVGETVTITCRASGNIHNYLAWYQQKQGKSPQLLVYNAKTLADGVPSRFSGSGSGTQYSLKINSLQPEDFGSYYCQHFWSTPRTFGGGTKLEIKRTVAAPSVFIFPPSDEQLKSGTASVVCLLNNFYPREAKVQWKVDNALQSGNSQESVTEQDSKDSTYSLSSTLTLSKADYEKHKVYACEVTHQGLSSPVTKSFNRGEC
As usually defined, the koff is the first-order rate constant of dissociation. A low value points to a long-lived complex. Turning to B1, in assay [1], the “DO11.10 EC50” value worked out at 0.434 nM. Moreover, the koff in assay [2] was 0.000377 s⁻¹.

B2: FS17-33-459AA/HELD1.3 (bispecific antibody)
chain 1: QVQLQESGPGLVRPSQTLSLTCTVSGSTFSGYGVNWVRQPPGRGLEWIGMIWGDGNTDYNSALKSRVTMLVDTSKNQFSLRLSSVTAADTAVYYCARERDYRLDYWGQGSLVTVSSASTKGPSVFPLAPSSKSTSGGTAALGCLVKDYFPEPVTVSWNSGALTSGVHTFPAVLQSSGLYSLSSVVTVPSSSLGTQTYICNVNHKPSNTKVDKKVEPKSCDKTHTCPPCPAPEAAGGPSVFLFPPKPKDTLMISRTPEVTCVVVDVSHEDPEVKFNWYVDGVEVHNAKTKPREEQYNSTYRVVSVLTVLHQDWLNGKEYKCKVSNKALPAPIEKTISKAKGQPREPQVYTLPPSRDESGYWVSLTCLVKGFYPSDIAVEWESNGEPQYWAKTTPPVLDSDGSFFLYSKLTVSNWRWRLDDVFSCSVMHEALHNHYTQKSLSLSPGK
chain 2: B1 chain 2
B2 had a koff in assay [3] of 0.00038 s⁻¹.

B3: FS17-33-456AA/HELD1.3 (bispecific antibody)
chain 1: B2 chain 1 with N412A, R416Q
chain 2: B1 chain 2
B3 returned an off-rate constant (koff) in assay [3] of 0.000619 s⁻¹.

B4: FS17-33-457AA/HELD1.3 (bispecific antibody)
chain 1: B2 chain 1 with N412Q, R416Q
chain 2: B1 chain 2
B4 gave a koff in assay [3] of 0.000589 s⁻¹.

B5: FS17-33-453AA/HELD1.3 (bispecific antibody)
chain 1: B2 chain 1 with S357L, R416Q
chain 2: B1 chain 2
Take B5: the koff in assay [3] was found to be 0.000303 s⁻¹.

B6: FS17-33-454AA/HELD1.3 (bispecific antibody)
chain 1: B2 chain 1 with S357F, R416Q
chain 2: B1 chain 2
In turn, B6 yielded a koff in assay [3] of 0.000269 s⁻¹.

B7: FS17-33-271AA/HELD1.3 (bispecific antibody)
chain 1: B1 chain 1 with R416H
chain 2: B1 chain 2
As to B7, in assay [1], the “DO11.10 EC50” value stood at 0.254 nM. Moreover, the koff in assay [2] is 0.000518 s⁻¹.

B8: FS17-33-458AA/HELD1.3 (bispecific antibody)
chain 1: B2 chain 1 with N412H, R416Q
chain 2: B1 chain 2
In the case of B8, the koff in assay [3] came out at 0.000456 s⁻¹.

B9: FS17-33-277AA/HELD1.3 (bispecific antibody)
chain 1: B1 chain 1 with R416S
chain 2: B1 chain 2
On to B9, for which, in assay [1], the “DO11.10 EC50” value is 0.319 nM. This molecule yielded a koff in assay [2] of 0.000415 s⁻¹.

B10: FS17-33-316AA/HELD1.3 (bispecific antibody)
chain 1: B1 chain 1 with R416Q, D419A
chain 2: B1 chain 2
With B10, the “DO11.10 EC50” value in assay [1] was 0.563 nM. In assay [2], this molecule had a koff of 0.000566 s⁻¹.

B11: FS17-33-455AA/HELD1.3 (bispecific antibody)
chain 1: B2 chain 1 with S357Y, R416Q
chain 2: B1 chain 2
In assay [3], B11 returned a koff of 0.000343 s⁻¹.
